This is an account of results in publication PMC6440998, “Tunable microsecond dynamics of an allosteric switch regulate the activity of a AAA+ disaggregation machine” (Nature Communications, 2019).

This data set deals with T1, Nc1ncnc2c1ncn2[C@@H]1O[C@H](COP(=O)(O)OP(=O)(O)OP(=O)(O)O)[C@@H](O)[C@H]1O.
T1 construct: full length, N-domain, NBD1, M domain, NBD2; pET28b, His6 tag with TEV cleavage site; expressed in E. coli BL21(DE3) pLysS; homohexamer
The data set is described as follows: purified protein. In kind it is biochemical, Thermus thermophilus. Particulars: basal activity, no casein, 50 mM HEPES pH 7.8, 50 mM KCl, 10 mM MgCl2, 25 °C, Hill fit.

Chain of TT ClpB (Thermus thermophilus HB8) (chain, as listed by the source): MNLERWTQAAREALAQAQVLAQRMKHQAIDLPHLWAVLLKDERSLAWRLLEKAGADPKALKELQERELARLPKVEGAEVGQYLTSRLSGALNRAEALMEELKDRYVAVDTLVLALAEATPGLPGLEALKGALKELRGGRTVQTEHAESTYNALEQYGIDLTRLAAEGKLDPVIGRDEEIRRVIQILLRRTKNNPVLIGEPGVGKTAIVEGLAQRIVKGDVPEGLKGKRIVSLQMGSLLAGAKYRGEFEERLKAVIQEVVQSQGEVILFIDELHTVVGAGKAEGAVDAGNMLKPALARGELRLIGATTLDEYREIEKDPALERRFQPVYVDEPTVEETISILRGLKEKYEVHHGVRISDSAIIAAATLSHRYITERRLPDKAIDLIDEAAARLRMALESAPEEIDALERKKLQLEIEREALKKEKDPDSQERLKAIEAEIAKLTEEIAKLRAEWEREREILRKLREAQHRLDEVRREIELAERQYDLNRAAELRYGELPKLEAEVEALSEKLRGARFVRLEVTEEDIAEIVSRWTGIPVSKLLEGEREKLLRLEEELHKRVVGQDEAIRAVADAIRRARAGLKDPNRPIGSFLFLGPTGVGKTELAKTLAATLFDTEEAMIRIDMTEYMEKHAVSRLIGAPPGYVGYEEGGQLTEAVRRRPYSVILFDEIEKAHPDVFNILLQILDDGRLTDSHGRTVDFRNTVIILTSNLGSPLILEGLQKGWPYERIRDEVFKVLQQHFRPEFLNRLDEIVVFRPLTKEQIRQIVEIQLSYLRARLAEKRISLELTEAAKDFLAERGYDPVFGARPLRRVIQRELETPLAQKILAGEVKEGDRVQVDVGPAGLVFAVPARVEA

A word on the kcat: it is the number of substrate molecules converted per active site and unit of time at saturation. For the sequence TT ClpB (Thermus thermophilus HB8), the K0.5 was 390 ± 15 µM and the turnover number (kcat) came to 0.0533 ± 0.00167 s⁻¹.
